Reference: patent US20180271994A1 (published 2018)

What was measured:
[1] = molecular target: immunodominant epitope of the MUC18 antigen; experiment: phage ELISA, peptide coated at 100 ug/ml (control phage)
[2] = molecular target: immunodominant epitope of the MUC18 antigen; experiment: phage ELISA, peptide well against negative control well
unrelated peptide = experiment: phage ELISA, well with unrelated peptide (control)
[3] = molecular target: immunodominant epitope of the MUC18 antigen; experiment: phage ELISA, peptide coated at 100 ug/ml
MUC18 antigen = molecular target: T1, MUC18 antigen (human, UniProt P43121 24-646); experiment: cell-based or functional assay
T1 sequence (looked up): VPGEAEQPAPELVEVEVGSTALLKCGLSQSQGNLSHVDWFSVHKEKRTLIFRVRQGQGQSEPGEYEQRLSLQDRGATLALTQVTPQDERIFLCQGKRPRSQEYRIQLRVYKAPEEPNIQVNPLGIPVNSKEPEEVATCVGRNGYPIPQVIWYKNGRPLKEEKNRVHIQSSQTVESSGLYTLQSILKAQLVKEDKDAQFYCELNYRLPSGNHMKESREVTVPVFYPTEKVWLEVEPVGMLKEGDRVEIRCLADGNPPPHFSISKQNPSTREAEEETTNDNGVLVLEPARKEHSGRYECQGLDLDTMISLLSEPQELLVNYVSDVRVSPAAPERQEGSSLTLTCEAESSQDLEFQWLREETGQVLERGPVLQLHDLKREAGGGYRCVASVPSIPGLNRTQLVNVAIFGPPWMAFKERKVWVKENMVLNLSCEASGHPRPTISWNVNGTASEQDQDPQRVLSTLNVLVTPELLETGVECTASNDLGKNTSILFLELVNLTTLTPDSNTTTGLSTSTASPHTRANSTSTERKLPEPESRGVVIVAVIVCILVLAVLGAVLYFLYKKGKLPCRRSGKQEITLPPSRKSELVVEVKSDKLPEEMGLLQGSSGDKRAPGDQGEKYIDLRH

Molecule unrelated phage has a mean absorbance (OD 450 nm) [1] of 0.17 OD450.

B1: anti-MUC18 HscFv-displaying phage (scFv)
scFv: GRGALVESGPGLVKPSETLFLTCTVSGGSISSYYWSWIRQPAGKGLEWIAYIYYSGSTNYNPSLKSRVTISVDTSNNQFSLKLSSVTAADTAVYYCAKLTAAGGHFDPWGQGTLVTVSSGGGGSGGGGSGGGGSDIVMTQSPSSLSASIGDRVTITCRASQGISNFLAWFQQKPGKAPKSLIYAASSLQSGVPSKFSGSGSGTDFTLAISSLQPEDFATYYCLQDSDYPLTFGGGTKLEIKR
With B1 the fold OD over negative control well [2] was 4 fold, the mean absorbance (OD 450 nm) (unrelated peptide) was 0.1 OD450 and the mean absorbance (OD 450 nm) [3] was 1.6 OD450.

B2: anti-MUC18 human immunotoxin (other)
chain: GRGALVESGPGLVKPSETLFLTCTVSGGSISSYYWSWIRQPAGKGLEWIAYIYYSGSTNYNPSLKSRVTISVDTSNNQFSLKLSSVTAADTAVYYCAKLTAAGGHFDPWGQGTLVTVSSGGGGSGGGGSGGGGSDIVMTQSPSSLSASIGDRVTITCRASQGISNFLAWFQQKPGKAPKSLIYAASSLQSGVPSKFSGSGSGTDFTLAISSLQPEDFATYYCLQDSDYPLTFGGGTKLEIKRASGGPEGGSRHRQPRGWEQLADVVSLTCPVAAGECAGPADSGDALLERNYPTGAEFLGDGGAISFSTRGTQNWTVERLLQAHRQLEEGGYVFVGYHGTFLEAAQSIVFGGVRARSQDLDAIWAGFYIAGDPALAYGYAQDQEPDAAGRIRNGALLRVYVPRSSLPGFYATGLTLAAPEAAGEVERLIGHPLPLRLDAITGPEEAGGRLETILGWPLAERTVVIPSAIPTDPRNVGGDLDPSSIPDSEAAISALPDYASQPGKPPKDEL
For B2, the “IC50, MTT assay, A375 cells, 24 hours” value (MUC18 antigen) was roughly 2.1 nM and the “IC50, MTT assay, DU145 cells, 24 hours” value (MUC18 antigen) was roughly 6.1 nM.
